The target in assay [1] is T1, Bovine trypsin (Sigma Chemical Co.) (bovine, UniProt P00760 24-246).
T1 construct: Unlabelled in ITC; Oregon Green labelled in the library screening assay; also called bovine pancreatic trypsin
As to the kind of experiment: ITC, binding agent injected into bovine trypsin, 293 K. As to the method:
(§1) Isothermal titration calorimetry (ITC) was performed with a VP-ITC instrument from MicroCal, Inc. Titrations were carried out by injecting 5 µL of a binding agent (at concentration ranges from 0.5 mM to 1.0 mM) into the 1.4 mL stirred reaction cell. Bovine trypsin (Sigma Chemical Co.) ranged in concentration from 10 to 30 μM in the cell. Both the inhibitor and the enzyme were in 20 mM sodium cacodylate (pH 6.9), 40 mM NaCl. Titrations were conducted at 20° C. Typical experimental conditions for the titrations were a 10 second injection period followed by a 240 second delay between injections for a total of 40 injections. Blank titrations of binding agent into buffer were performed in order to correct for heats of dilution and mixing.
(§2) The ability of three binding agents (SEQ ID NO:4, SEQ ID NO:33 and 35) was tested to ascertain whether they could effectively bind bovine trypsin. Binding was measured by isothermal titration calorimetry (ITC).
Figure 9: FIG. 9 is a graph illustrating the binding between the computer-generated loop i variant and bovine pancreatic trypsin as analyzed by ITC analysis. Binding reagents and trypsin were dialyzed into 20 mM sodium cacodylate (pH 6.9), 40 mM NaCl. The binding reagent was at a concentration of 1 mM and trypsin was used in the calorimeter cell at a concentration of 20 μM. The temperature was maintained at 20° C. 40 injections of 5 μL each were employed with a 240 second re-equilibrium time between injections.

Assay [2] addresses T1, Bovine trypsin (Sigma Chemical Co.). As to the kind of experiment: ITC, binding agent injected into bovine trypsin in the cell, 20 C. As to the method: as §1, §2
A general note: ITC needs no label: the signal is the heat of the interaction.

T1 sequence (P00760 24-246): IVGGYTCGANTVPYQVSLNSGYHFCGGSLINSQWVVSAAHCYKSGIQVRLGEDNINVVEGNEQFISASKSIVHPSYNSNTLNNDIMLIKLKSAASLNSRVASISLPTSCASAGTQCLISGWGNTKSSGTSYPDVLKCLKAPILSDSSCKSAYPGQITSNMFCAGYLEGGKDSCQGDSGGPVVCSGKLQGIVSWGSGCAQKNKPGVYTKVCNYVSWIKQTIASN

B1: Loop i variant from computer search (parental binding agent with loop i ITAVCHK, SEQ ID NO:35) (designed binder)
chain: MDVQLQASGGGSVQAGGSLRLSCAASITAVCHKCAGWFRQAPGKEREGVAAINAGAAGTSYADSVKGRFTISQLAGAANVYLLMNSLEPEDTAIYYCAAGHAGAAGAATCGHGLSTAGAAGAPWGQGTQVTVSS
notes: The protein was then made, expressed and purified, and tested by ITC; also called Loop i Variant Computer; computer-generated loop i variant; not shown: C-terminal hexa-histidine tag added by the vector construct
For the molecule B1, in assay [1], the Ka was 622000 M⁻¹, the Stoichiometry was 1.02 and the ΔS was -96.6 cal mol^-1 K^-1.

B2: Parental binding agent (generic binding agent, SEQ ID NO:4, Ala/Gly loops) (designed binder)
chain: MDVQLQASGGGSVQAGGSLRLSCAASAGAAGAACAGWFRQAPGKEREGVAAINAGAAGTSYADSVKGRFTISQLAGAANVYLLMNSLEPEDTAIYYCAAGHAGAAGAATCGHGLSTAGAAGAPWGQGTQVTVSS
notes: Camelid VHH-derived beta barrel scaffold, all five loops Ala/Gly; Expressed in E. coli as a monomeric C-terminal His-Tag fusion; not shown: C-terminal hexa-histidine tag added by the vector construct
Turning to B2, the binding result in assay [2] was “no binding”.

B3: Loop i variant from library screening (parental binding agent with loop i RYLRYPS, SEQ ID NO:33) (designed binder)
chain: MDVQLQASGGGSVQAGGSLRLSCAASRYLRYPSCAGWFRQAPGKEREGVAAINAGAAGTSYADSVKGRFTISQLAGAANVYLLMNSLEPEDTAIYYCAAGHAGAAGAATCGHGLSTAGAAGAPWGQGTQVTVSS
notes: The clone came from a library in which loops i to v were randomised; also called Loop i variant Screening; Biological Screen; not shown: C-terminal hexa-histidine tag added by the vector construct
In assay [1], B3 yielded a Ka of 1.65e+06 M⁻¹, a Stoichiometry of 0.99 and a ΔS of -102 cal mol^-1 K^-1.

These data come from patent publication US7547662 (KIMBERLY CLARK WORLDWIDE, dated 2009).
